Measured values from patent US20180092966A1 (CSL, published 2018).

Experiments:
[1] = molecular target: T1, VWF-FP K1116C mutant (albumin-fused von Willebrand Factor) (human); assay: covalent-FVIII ELISA over FVIII activity assay
T1 construct: Stably expressed in CHO cells with furin co-transfected; also called VWF-FP mutant K1116C; Cys residue at VWF aa position 1116; not shown: linker between VWF and albumin, made in analogy to WO 2009/156137

[2] = molecular target: T2, VWF-FP E1015C mutant (albumin-fused von Willebrand Factor) (human); assay: covalent-FVIII ELISA over FVIII activity assay
T2 construct: Stably expressed in CHO cells with furin co-transfected; also called VWF-FP mutant E1015C; Cys residue at VWF aa position 1015; not shown: linker between VWF and albumin, made in analogy to WO 2009/156137

[3] = molecular target: T3, VWF-FP N1134C mutant (albumin-fused von Willebrand Factor) (human); assay: covalent-FVIII ELISA over FVIII activity assay
T3 construct: Stably expressed in CHO cells with furin co-transfected; also called VWF-FP mutant N1134C; Cys residue at VWF aa position 1134; not shown: linker between VWF and albumin, made in analogy to WO 2009/156137

[4] = molecular target: T4, VWF-FP H817C mutant (albumin-fused von Willebrand Factor) (human); assay: covalent-FVIII ELISA over FVIII activity assay
T4 construct: Stably expressed in CHO cells with furin co-transfected; also called VWF-FP mutant H817C; Cys residue at VWF aa position 817; not shown: linker between VWF and albumin, made in analogy to WO 2009/156137

[5] = molecular target: T5, VWF-FP L984C mutant (albumin-fused von Willebrand Factor) (human); assay: covalent-FVIII ELISA over FVIII activity assay
T5 construct: Stably expressed in CHO cells with furin co-transfected; also called VWF-FP mutant L984C; Cys residue at VWF aa position 984; not shown: linker between VWF and albumin, made in analogy to WO 2009/156137

[6] = molecular target: T6, VWF-FP R768C mutant (albumin-fused von Willebrand Factor) (human); assay: covalent-FVIII ELISA over FVIII activity assay
T6 construct: Stably expressed in CHO cells with furin co-transfected; also called VWF-FP mutant R768C; Cys residue at VWF aa position 768; not shown: linker between VWF and albumin, made in analogy to WO 2009/156137

[7] = molecular target: T1, VWF-FP K1116C mutant (albumin-fused von …); assay: covalent-FVIII ELISA over FVIII antigen ELISA
[8] = molecular target: T2, VWF-FP E1015C mutant (albumin-fused von …); assay: covalent-FVIII ELISA over FVIII antigen ELISA
[9] = molecular target: T3, VWF-FP N1134C mutant (albumin-fused von …); assay: covalent-FVIII ELISA over FVIII antigen ELISA
[10] = molecular target: T4, VWF-FP H817C mutant (albumin-fused von …); assay: covalent-FVIII ELISA over FVIII antigen ELISA
[11] = molecular target: T5, VWF-FP L984C mutant (albumin-fused von …); assay: covalent-FVIII ELISA over FVIII antigen ELISA
[12] = molecular target: T6, VWF-FP R768C mutant (albumin-fused von …); assay: covalent-FVIII ELISA over FVIII antigen ELISA
[13] = molecular target: T1, VWF-FP K1116C mutant (albumin-fused von …); assay: ELISA of co-expression supernatant: anti-VWF capture, 350 mM CaCl2 wash, anti-FVIII detection
Description: (§1) Cell culture supernatant samples (10 ml) from transient transfections were concentrated with Amicon Ultracell-30K (Millipore UFC903024; 3000 g centrifugation). FVIII covalently attached to VWF-FP in culture supernatant (concentrates) was determined by a standard ELISA. Briefly, microplates were incubated with 100 μL per well of the capture antibody (rabbit anti human VWF-IgG, Dako A0082 [Dako, Hamburg, Germany], diluted 1:2000 in buffer A [Sigma C3041, Sigma-Aldrich, Munich, Germany]) overnight at ambient temperature. After washing plates three times with buffer B (Sigma T9039), each well was incubated with 200 μL buffer C (Sigma T6789) for 1.5 hours at ambient temperature (blocking). After another three wash steps with buffer B, serial dilutions of the test sample in buffer B as well as serial dilutions of a control preparation of covalently linked FVIII-VWF-FP, (2.0-0.03 arbitrary U/ml in buffer B (we call these “arbitrary units” as they may not correspond to the standard FVIII units as determined using Standard Human Plasma); volumes per well: 100 μL) were incubated for 1.5 hours at ambient temperature. After three wash steps with buffer B, 200 μL of 350 mM CaCl₂ were added to each well and incubated for 1 hour at ambient temperature. CaCl₂ was removed (without washing) and additional 200 μl were added to each well and incubated further for 1 hour. After three wash steps with buffer B 100 μL of a 1:2 dilution in buffer B of the detection antibody (Detecting Antibody for FVIII:C, peroxidase labelled, Cedarlane CL20035K-D) were added to each well and incubated for 1 hour at ambient temperature. After three wash steps with buffer B, 100 μL of substrate solution (OUVF, Siemens Healthcare Diagnostics) were added per well and incubated for 15 minutes at ambient temperature in the dark. Addition of 100 μL undiluted stop dilution (OSFA, Siemens Healthcare Diagnostics) prepared the samples for reading in a suitable microplate reader at 450 nm wavelength. Concentrations of the test samples were then calculated using the standard curve with the control preparation.

[14] = molecular target: T2, VWF-FP E1015C mutant (albumin-fused von …); assay: as above
Description: as §1

[15] = molecular target: T3, VWF-FP N1134C mutant (albumin-fused von …); assay: as above
Description: as §1

[16] = molecular target: T4, VWF-FP H817C mutant (albumin-fused von …); assay: as above
Description: as §1

[17] = molecular target: T5, VWF-FP L984C mutant (albumin-fused von …); assay: as above
Description: as §1

[18] = molecular target: T6, VWF-FP R768C mutant (albumin-fused von …); assay: as above
Description: as §1

T6 sequence (chain, as listed by the source R768C R768C): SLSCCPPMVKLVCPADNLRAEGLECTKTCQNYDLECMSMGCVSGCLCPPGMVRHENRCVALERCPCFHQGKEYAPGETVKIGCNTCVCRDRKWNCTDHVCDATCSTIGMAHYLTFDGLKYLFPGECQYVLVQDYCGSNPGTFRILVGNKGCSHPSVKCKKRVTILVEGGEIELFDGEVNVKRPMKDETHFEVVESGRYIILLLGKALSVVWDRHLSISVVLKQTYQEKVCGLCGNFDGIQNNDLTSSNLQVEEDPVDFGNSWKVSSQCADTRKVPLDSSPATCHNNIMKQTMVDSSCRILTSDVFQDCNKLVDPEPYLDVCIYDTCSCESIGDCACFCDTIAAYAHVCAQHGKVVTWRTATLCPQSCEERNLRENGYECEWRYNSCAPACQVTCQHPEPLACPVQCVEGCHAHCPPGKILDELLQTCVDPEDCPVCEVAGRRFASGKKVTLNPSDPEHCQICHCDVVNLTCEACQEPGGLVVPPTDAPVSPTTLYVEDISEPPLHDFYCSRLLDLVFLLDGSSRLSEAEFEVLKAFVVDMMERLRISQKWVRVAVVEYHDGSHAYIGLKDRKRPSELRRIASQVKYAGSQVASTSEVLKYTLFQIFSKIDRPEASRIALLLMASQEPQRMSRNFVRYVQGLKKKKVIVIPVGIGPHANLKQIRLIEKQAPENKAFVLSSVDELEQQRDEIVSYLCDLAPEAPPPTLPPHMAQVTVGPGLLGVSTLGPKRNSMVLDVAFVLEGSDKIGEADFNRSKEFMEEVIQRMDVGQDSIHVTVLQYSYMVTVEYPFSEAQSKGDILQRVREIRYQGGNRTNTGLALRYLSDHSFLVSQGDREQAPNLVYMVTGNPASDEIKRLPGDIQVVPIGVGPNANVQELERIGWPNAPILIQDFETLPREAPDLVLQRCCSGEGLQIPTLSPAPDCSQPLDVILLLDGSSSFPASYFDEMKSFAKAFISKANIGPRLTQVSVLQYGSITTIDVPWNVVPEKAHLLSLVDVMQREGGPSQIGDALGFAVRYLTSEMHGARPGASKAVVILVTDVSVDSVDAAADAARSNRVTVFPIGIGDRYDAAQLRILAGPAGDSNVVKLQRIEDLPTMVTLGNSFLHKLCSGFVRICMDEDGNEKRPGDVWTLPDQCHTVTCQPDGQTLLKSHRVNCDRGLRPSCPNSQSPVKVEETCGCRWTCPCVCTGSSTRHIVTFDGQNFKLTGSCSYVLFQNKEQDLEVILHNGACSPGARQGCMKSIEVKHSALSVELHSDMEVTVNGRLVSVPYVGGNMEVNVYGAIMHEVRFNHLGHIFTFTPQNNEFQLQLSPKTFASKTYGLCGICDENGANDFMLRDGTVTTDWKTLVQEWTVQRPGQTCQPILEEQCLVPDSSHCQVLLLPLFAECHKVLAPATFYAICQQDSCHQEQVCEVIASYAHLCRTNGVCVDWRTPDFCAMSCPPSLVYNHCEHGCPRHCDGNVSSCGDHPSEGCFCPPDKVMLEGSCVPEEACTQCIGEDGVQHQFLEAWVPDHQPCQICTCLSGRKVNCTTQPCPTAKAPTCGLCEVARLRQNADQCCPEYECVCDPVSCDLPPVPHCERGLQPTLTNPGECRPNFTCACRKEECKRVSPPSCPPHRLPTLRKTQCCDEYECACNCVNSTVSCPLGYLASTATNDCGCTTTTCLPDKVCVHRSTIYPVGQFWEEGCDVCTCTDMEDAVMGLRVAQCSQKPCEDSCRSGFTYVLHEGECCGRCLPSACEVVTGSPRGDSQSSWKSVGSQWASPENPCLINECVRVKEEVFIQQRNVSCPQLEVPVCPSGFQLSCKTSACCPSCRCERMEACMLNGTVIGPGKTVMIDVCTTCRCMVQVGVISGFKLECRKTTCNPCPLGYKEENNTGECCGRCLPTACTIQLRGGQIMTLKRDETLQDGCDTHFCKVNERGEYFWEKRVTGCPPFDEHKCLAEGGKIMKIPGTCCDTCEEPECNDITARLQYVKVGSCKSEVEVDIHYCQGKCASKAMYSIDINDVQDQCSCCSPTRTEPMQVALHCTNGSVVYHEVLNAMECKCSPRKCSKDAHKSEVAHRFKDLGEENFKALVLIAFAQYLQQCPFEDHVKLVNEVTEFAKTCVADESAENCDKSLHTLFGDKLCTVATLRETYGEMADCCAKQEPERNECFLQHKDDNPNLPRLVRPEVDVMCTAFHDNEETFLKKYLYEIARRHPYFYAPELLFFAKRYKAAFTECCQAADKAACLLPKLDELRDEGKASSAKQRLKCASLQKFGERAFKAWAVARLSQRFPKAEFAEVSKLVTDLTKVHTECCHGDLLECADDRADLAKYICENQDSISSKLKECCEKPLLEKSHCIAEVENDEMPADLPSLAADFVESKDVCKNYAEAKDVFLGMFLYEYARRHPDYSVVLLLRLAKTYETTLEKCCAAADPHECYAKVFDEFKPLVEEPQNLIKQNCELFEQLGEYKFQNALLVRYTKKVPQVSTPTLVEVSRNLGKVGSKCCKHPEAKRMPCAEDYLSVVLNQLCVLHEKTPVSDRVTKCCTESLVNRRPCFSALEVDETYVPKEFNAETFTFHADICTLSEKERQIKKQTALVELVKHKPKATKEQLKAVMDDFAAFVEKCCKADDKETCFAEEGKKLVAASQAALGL
T1 sequence (chain, as listed by the source K1116C K1116C): as the sequence (chain, as listed by the source R768C R768C) above, with C5R, K353C counted along it
T5 sequence (chain, as listed by the source L984C L984C): as the sequence (chain, as listed by the source R768C R768C) above, with C5R, L221C counted along it
T4 sequence (chain, as listed by the source H817C H817C): as the sequence (chain, as listed by the source R768C R768C) above, with C5R, H54C counted along it
T2 sequence (chain, as listed by the source E1015C E1015C): as the sequence (chain, as listed by the source R768C R768C) above, with C5R, E252C counted along it
T3 sequence (chain, as listed by the source N1134C N1134C): as the sequence (chain, as listed by the source R768C R768C) above, with C5R, N371C counted along it

ratio covalent FVIII/Total FVIII activity [1]: 0.61
ratio covalent FVIII/Total FVIII activity [2]: 1.59
ratio covalent FVIII/Total FVIII activity [3]: 1.87
ratio covalent FVIII/Total FVIII activity [4]: 1.89
ratio covalent FVIII/Total FVIII activity [5]: 2.45
ratio covalent FVIII/Total FVIII activity [6]: 18.8
ratio covalent FVIII/Total FVIII antigen [7]: 1.89
ratio covalent FVIII/Total FVIII antigen [8]: 0.53
ratio covalent FVIII/Total FVIII antigen [9]: 6.11
ratio covalent FVIII/Total FVIII antigen [10]: 0.29
ratio covalent FVIII/Total FVIII antigen [11]: 0.96
ratio covalent FVIII/Total FVIII antigen [12]: 2.13
covalent FVIII [13]: 666 amU/ml
covalent FVIII [14]: 1080 amU/ml
covalent FVIII [15]: 650 amU/ml
covalent FVIII [16]: 367 amU/ml
covalent FVIII [17]: 1900 amU/ml
covalent FVIII [18]: 2060 amU/ml
B1: Factor VIII SingleChain P1688C mutant (other)
chain: ATRRYYLGAVELSWDYMQSDLGELPVDARFPPRVPKSFPFNTSVVYKKTLFVEFTDHLFNIAKPRPPWMGLLGPTIQAEVYDTVVITLKNMASHPVSLHAVGVSYWKASEGAEYDDQTSQREKEDDKVFPGGSHTYVWQVLKENGPMASDPLCLTYSYLSHVDLVKDLNSGLIGALLVCREGSLAKEKTQTLHKFILLFAVFDEGKSWHSETKNSLMQDRDAASARAWPKMHTVNGYVNRSLPGLIGCHRKSVYWHVIGMGTTPEVHSIFLEGHTFLVRNHRQASLEISPITFLTAQTLLMDLGQFLLFCHISSHQHDGMEAYVKVDSCPEEPQLRMKNNEEAEDYDDDLTDSEMDVVRFDDDNSPSFIQIRSVAKKHPKTWVHYIAAEEEDWDYAPLVLAPDDRSYKSQYLNNGPQRIGRKYKKVRFMAYTDETFKTREAIQHESGILGPLLYGEVGDTLLIIFKNQASRPYNIYPHGITDVRPLYSRRLPKGVKHLKDFPILPGEIFKYKWTVTVEDGPTKSDPRCLTRYYSSFVNMERDLASGLIGPLLICYKESVDQRGNQIMSDKRNVILFSVFDENRSWYLTENIQRFLPNPAGVQLEDPEFQASNIMHSINGYVFDSLQLSVCLHEVAYWYILSIGAQTDFLSVFFSGYTFKHKMVYEDTLTLFPFSGETVFMSMENPGLWILGCHNSDFRNRGMTALLKVSSCDKNTGDYYEDSYEDISAYLLSKNNAIEPRSFSQNSRHRSTRQKQFNATTIPENTTLQSDQEEIDYDDTISVEMKKEDFDIYDEDENQSCRSFQKKTRHYFIAAVERLWDYGMSSSPHVLRNRAQSGSVPQFKKVVFQEFTDGSFTQPLYRGELNEHLGLLGPYIRAEVEDNIMVTFRNQASRPYSFYSSLISYEEDQRQGAEPRKNFVKPNETKTYFWKVQHHMAPTKDEFDCKAWAYFSDVDLEKDVHSGLIGPLLVCHTNTLNPAHGRQVTVQEFALFFTIFDETKSWYFTENMERNCRAPCNIQMEDPTFKENYRFHAINGYIMDTLPGLVMAQDQRIRWYLLSMGSNENIHSIHFSGHVFTVRKKEEYKMALYNLYPGVFETVEMLPSKAGIWRVECLIGEHLHAGMSTLFLVYSNKCQTPLGMASGHIRDFQITASGQYGQWAPKLARLHYSGSINAWSTKEPFSWIKVDLLAPMIIHGIKTQGARQKFSSLYISQFIIMYSLDGKKWQTYRGNSTGTLMVFFGNVDSSGIKHNIFNPPIIARYIRLHPTHYSIRSTLRMELMGCDLNSCSMPLGMESKAISDAQITASSYFTNMFATWSPSKARLHLQGRSNAWRPQVNNPKEWLQVDFQKTMKVTGVTTQGVKSLLTSMYVKEFLISSSQDGHQWTLFFQNGKVKVFQGNQDSFTPVVNSLDPPLLTRYLRIHPQSWVHQIALRMEVLGCEAQDLY
notes: Single-chain FVIII with partial B-domain deletion; also called FVIII-SC P1688C; Cys residue at FVIII aa position 1688
